# Experimental data published in publication PMC5332438.
# Assays:
# Experiment in all cases: co-IP
# [1] = molecular target: human mitochondrial adenine nucleotide translocator, C-terminal c-Myc-DDK tag (human) (UniProt P12235)
# [2] = molecular target: human translocase of outer mitochondrial membrane 22 homolog, C-terminal c-Myc and DDK tags (human) (UniProt Q9NS69)
# [3] = molecular target: human BKCa alpha-subunit starting from Met3, untagged (human)
# [4] = molecular target: Full length human BKCa alpha-subunit starting from Met1, 3xHA-tagged, with DEC splice insert (human)
# [5] = molecular target: Full length human BKCa alpha-subunit starting from Met1, 3xHA-tagged, without DEC (human)
# Chain of Full length human BKCa alpha-subunit starting from Met1, 3xHA-tagged, without DEC (human) (Q12791 whole entry): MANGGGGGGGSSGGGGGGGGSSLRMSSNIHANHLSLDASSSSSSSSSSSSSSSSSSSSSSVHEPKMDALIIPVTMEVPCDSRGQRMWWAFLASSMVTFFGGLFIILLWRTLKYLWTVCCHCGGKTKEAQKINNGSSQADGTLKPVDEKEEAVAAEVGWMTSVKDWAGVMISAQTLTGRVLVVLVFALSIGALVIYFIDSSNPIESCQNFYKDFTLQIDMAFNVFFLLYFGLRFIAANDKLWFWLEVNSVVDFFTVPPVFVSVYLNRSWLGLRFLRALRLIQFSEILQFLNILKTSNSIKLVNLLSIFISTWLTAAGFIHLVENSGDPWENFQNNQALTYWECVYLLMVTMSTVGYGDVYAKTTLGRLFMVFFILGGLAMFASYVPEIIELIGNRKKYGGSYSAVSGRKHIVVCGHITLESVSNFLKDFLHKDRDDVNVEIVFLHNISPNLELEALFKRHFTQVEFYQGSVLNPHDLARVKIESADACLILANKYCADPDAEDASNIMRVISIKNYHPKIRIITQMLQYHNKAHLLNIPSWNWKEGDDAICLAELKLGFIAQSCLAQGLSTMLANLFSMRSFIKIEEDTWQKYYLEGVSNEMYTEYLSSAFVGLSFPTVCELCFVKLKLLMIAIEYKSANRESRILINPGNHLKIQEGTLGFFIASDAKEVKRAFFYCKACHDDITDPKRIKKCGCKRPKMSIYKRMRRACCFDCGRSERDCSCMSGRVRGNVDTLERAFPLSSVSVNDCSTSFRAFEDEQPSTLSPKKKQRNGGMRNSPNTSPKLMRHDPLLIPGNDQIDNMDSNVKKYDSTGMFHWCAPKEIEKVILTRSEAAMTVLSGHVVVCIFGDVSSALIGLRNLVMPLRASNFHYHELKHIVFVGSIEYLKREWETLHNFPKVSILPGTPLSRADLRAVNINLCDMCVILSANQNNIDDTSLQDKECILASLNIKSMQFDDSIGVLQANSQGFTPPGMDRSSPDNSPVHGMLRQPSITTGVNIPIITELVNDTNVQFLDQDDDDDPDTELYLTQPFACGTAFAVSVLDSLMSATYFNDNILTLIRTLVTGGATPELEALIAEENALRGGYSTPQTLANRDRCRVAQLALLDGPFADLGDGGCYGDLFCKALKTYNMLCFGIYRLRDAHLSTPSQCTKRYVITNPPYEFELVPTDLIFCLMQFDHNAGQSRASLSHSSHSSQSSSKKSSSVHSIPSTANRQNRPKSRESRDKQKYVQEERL
# Chain of Full length human BKCa alpha-subunit starting from Met1, 3xHA-tagged, with DEC splice insert (human) (Q12791 whole entry, canonical isoform): as the sequence (Q12791 whole entry) above
# Chain of human BKCa alpha-subunit starting from Met3, untagged (human) (Q12791 whole entry, canonical isoform): as the sequence (Q12791 whole entry) above
Co-IP efficiency (compared to wild-type BKCa) [1],Co-IP efficiency (wild-type BKCa = 1) [2],other results,Molecule
0.33,0.42,,c-Myc-BKCa 679-1113 (domain or fragment)
0.91,,,c-Myc-BKCa 1-711 (domain or fragment)
0.17,0.33,,c-Myc-BKCa 322-1113 (domain or fragment)
,,Co-IP efficiency (BKCa-DEC = 1) [3]: 0.69,"human mitochondrial adenine nucleotide translocator, C-terminal c-Myc-DDK tag (natural protein) MGDHAWSFLKDFLAGGVAAAVSKTAVAPIERVKLLLQVQHASKQISAEKQYKGIIDCVVRIPKEQGFLSFWRGNLANVIRYFPTQALNFAFKDKYKQLFLGGVDRHKQFWRYFAGNLASGGAAGATSLCFVYPLDFARTRLAADVGKGAAQREFHGLGDCIIKIFKSDGLRGLYQGFNVSVQGIIIYRAAYFGVYDTAKGMLPDPKNVHIFVSWMIAQSVTAVAGLVSYPFDTVRRRMMMQSGRKGADIMYTGTVDCWRKIAKDEGAKAFFKGAWSNVLRGMGGAFVLVLYDEIKKYV"
,,Co-IP efficiency [4]: 0.91; Co-IP efficiency [5]: 0.89,"human translocase of outer mitochondrial membrane 22 homolog, C-terminal c-Myc and DDK tags (natural protein) MAAAVAAAGAGEPQSPDELLPKGDAEKPEEELEEDDDEELDETLSERLWGLTEMFPERVRSAAGATFDLSLFVAQKMYRFSRAALWIGTTSFMILVLPVVFETEKLQMEQQQQLQQRQILLGPNTGLSGGMPGALPSLPGKI"
